Here are results for 26 sequences from the supplement of paper PMC12764529.

± gives the half width of the 95% confidence interval. Bounds are passed on as bounds.

Data set [1] is described as follows: folding stability dG unfold (combined trypsin and chymotrypsin); higher = more stable. The method, boiled down: (§1)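 Bayesian fitting of sequencing counts gave K50 for each design. Unfolding free energy followed by setting this against a sequence-predicted unfolded-state K50 and a shared folded-state K50, either per protease or with trypsin and chymotrypsin combined. The designs, under 80 residues and lacking cysteine, were digested in a PA-tagged cDNA display format at 11 threefold-diluted protease concentrations and without protease, and only those with AlphaFold2 dimer inter-PAE above 15 were kept.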

Data set [2] in a line: folding stability dG unfold from trypsin proteolysis; higher = more stable. In short, it runs like this: as §1
Data set [3] in a line: folding stability dG unfold from chymotrypsin proteolysis; higher = more stable. The method, boiled down: as §1

Regarding “SIRPGQRIDSLEEVKEIAHRIAEEIQKEHGHPYKVTVNVEYYPEEDGRWYVKAKWYMPNNGKPIREITIMSA [r9_794_TrROS]”, the “folding stability dG unfold” value in data set [1] is 1.71 ± 0.19 kcal/mol; in data set [2] it was 1.53 ± 0.059 kcal/mol; in data set [3], 1.88 ± 0.1 kcal/mol.
As for “SKAEILEAPAVFNPESESATLYYLVKVTFPDPSVKLIPGVFPADYTPEQAAEEILARFKSLGLESATITPSA [r9_1203_TrMRF]”, the “folding stability dG unfold” value came out at 1.57 ± 0.19 kcal/mol in data set [1], 1.5 ± 0.15 kcal/mol in data set [2] and 1.46 ± 0.12 kcal/mol in data set [3].
With “SKATVLPNGEVVVTAEATFTLPDGTKVTVRVEVRIGPDGTLRPGVTVTVEPVPPPEKPLNIDFDPVTLPKSA [r9_1168_TrMRF]”, the “folding stability dG unfold” value in data set [1] stood at 2.67 ± 0.33 kcal/mol; in data set [2], 0.969 ± 0.13 kcal/mol; in data set [3], 2.91 ± 0.21 kcal/mol.
On to “SKEEKPPEVKTFKVKKIEFDPETKKITVEVDGKKLTLELKPGQEVEIFKDGKEIRVVRLAPPPPEKKEKKSA [r9_551_TrROS_Hall]”, for which the “folding stability dG unfold” value is above 6 kcal/mol in data set [1], 1.94 ± 0.36 kcal/mol in data set [2] and 2.95 ± 0.27 kcal/mol in data set [3].
“SKEKYKKPIKFTVKIEEGPVTENGEKYIKIEITYPGGYTATIIITPKKIEIKSNVPNPEKVKELVKKLVKSA [r9_662_TrMRF]”: the “folding stability dG unfold” value worked out at 2.5 ± 0.28 kcal/mol in data set [1], 1.62 ± 0.15 kcal/mol in data set [2] and 2.81 ± 0.14 kcal/mol in data set [3].
On to “SKEVKVKVKVVAPFYNKTKPFPLNIEVEVTVSSSNPELSPEKLTPENLAKIAAEKAREILLKLGIPEEFLSA [r9_516_TrMRF]”, for which the “folding stability dG unfold” value was determined as 2.86 ± 0.34 kcal/mol in data set [1], 2.63 ± 0.14 kcal/mol in data set [2] and 3.09 ± 0.14 kcal/mol in data set [3].
Take “SKGKKYELIVLLFKVEDPEKYPVEKKVSVPKEFIDFLKKKGFKIIEIKTRVIPSSDGSVYVEHVALVEVDSA [r9_465_TrMRF]”: the “folding stability dG unfold” value in data set [1] was found to be 3.82 ± 0.13 kcal/mol; in data set [2], 2.62 ± 0.12 kcal/mol; in data set [3], 4.16 ± 0.13 kcal/mol.
Turning to “SKIKKIKIVKVKPGEEITTPDGRKIKPGDIVIVDEKTNKVYSAEEIKKLLKELEEKLKKLPKKPKPKKKKSA [r9_517_TrROS_Hall]”, the figures for the “folding stability dG unfold” value in data set [1], in data set [2] and in data set [3] were 1.49 ± 0.17 kcal/mol, 0.814 ± 0.07 kcal/mol and 1.78 ± 0.089 kcal/mol, respectively.
Regarding “SKKIIKIKIEVIFPKTKKKIEIEIEMTEEEAKKLAEELKKKFKDEKVEVKIVKIEPLPPKKKKKVSKKKKSA [r9_14_TrROS_Hall]”, the “folding stability dG unfold” value in data set [1] worked out at 1.83 ± 0.2 kcal/mol; in data set [2] it was 1.52 ± 0.099 kcal/mol; in data set [3], 1.99 ± 0.1 kcal/mol.
Regarding “SKKITIEIELYRNPETKKLPLKLKAYNENGEPLGELEIEFTESPEEALEKALALAKELAESNDAEITFGLSA [r9_31_TrMRF]”, the “folding stability dG unfold” value came out at 1.76 ± 0.057 kcal/mol in data set [1], 1.38 ± 0.041 kcal/mol in data set [2] and 1.92 ± 0.036 kcal/mol in data set [3].
Consider “SKKIVINLENIPEENREKVLENVLKAIKEAKEKNPEKKVKITILVSPEQKEEVKKLKEELEKAGLEVEEISA [r9_1202_TrROS_Hall]”, for which the “folding stability dG unfold” value in data set [1] was determined as 2.73 ± 0.36 kcal/mol; in data set [2] it was 3.81 ± 0.31 kcal/mol; in data set [3], 2.31 ± 0.089 kcal/mol.
On to “SKKKITIEVEVEKDEETGEYTVRIRITVDGKEIEIEIKAKTPEEAKEKAKKLAEELLKKYPDKVKIEIKPSA [r9_1148_TrROS_Hall]”, for which the “folding stability dG unfold” value in data set [1] worked out at 2.21 ± 0.15 kcal/mol; in data set [2], 2.48 ± 0.11 kcal/mol; in data set [3], 1.98 ± 0.029 kcal/mol.
As to “SKKKKIIKIDIKPEDIEKGIKAVREAIKKAKEAEPDTEVIIDFHFESDYPEKVKEIEDLFKKENIPLKIGSA [r9_1202_TrMRF]”, the results for the “folding stability dG unfold” value in data set [1], in data set [2] and in data set [3] were 1.31 ± 0.18 kcal/mol, 1.39 ± 0.11 kcal/mol and 0.883 ± 0.048 kcal/mol, respectively.
In the case of “SKKKKKLTAEEIAKKLEEKLKEEFGIEEIKITKIEFDKETKEITITMEITYKKKKNEKITITKKIKVEDLSA [r9_1002_TrROS_Hall]”, the “folding stability dG unfold” value in data set [1] was found to be 2.28 ± 0.63 kcal/mol; in data set [2], 2.08 ± 0.24 kcal/mol; in data set [3], 2.5 ± 0.12 kcal/mol.
For the sequence “SKKKVKTETVTLKIVNEKTGEEVELTLEFYEDGTVVKVTFPDGTTKEIKVGKTLEELLSLPPNAKIELIPSA [r9_781_TrROS_Hall]”, the “folding stability dG unfold” value in data set [1] was found to be 1.56 ± 0.11 kcal/mol; in data set [2], 0.315 ± 0.12 kcal/mol; in data set [3], 2 ± 0.11 kcal/mol.
For “SKKMTAEELLKKFPNVVFIRLKNGKIIAFNKETKEIYIFNLKTGKVEKIKVTPEELEKLAKENNFEIYPVSA [r9_721_TrROS_Hall]”, the figures for the “folding stability dG unfold” value in data set [1], in data set [2] and in data set [3] were 3.12 ± 0.12 kcal/mol, 2.48 ± 0.078 kcal/mol and 3.32 ± 0.064 kcal/mol, respectively.
For “SKKPKVEIEIEIPSVISATPIPNTDEVLVNVPYRVKIKVIGEGPPKEVEVDLPGIMLVSDFIDELKKLLGSA [r9_656_TrMRF]” the same measures were 1.74 ± 0.098 kcal/mol, 1.72 ± 0.072 kcal/mol and 1.74 ± 0.046 kcal/mol.
“SKKVEVKEIEIKLADGSKVKAKIVKLPDGTYRIFVEFPDGRVAVFEIDVNGKIVKVKPLEVFSLEELKKKSA [r9_1075_TrROS_Hall]”: the “folding stability dG unfold” value in data set [1] came to 1.17 ± 0.22 kcal/mol; in data set [2], 1.07 ± 0.12 kcal/mol; in data set [3] it was 0.836 ± 0.47 kcal/mol.
“SKKVLFIEAKSEEELKAAVKALLDAGYDEIVVSSPEAAKALKELLPDVKVTLVEVKPEKKLSEEEKKKLKSA [r9_639_TrROS_Hall]”: the “folding stability dG unfold” value in data set [1] was 1.05 ± 0.26 kcal/mol; in data set [2] it was 0.505 ± 0.33 kcal/mol; in data set [3] it was 1.42 ± 0.096 kcal/mol.
For “SKKYKIKKVTIFVYKNGKVEEKEVDLTVDELKALEDAGFEVVKVEEKDGYITVVIKKDGYLVIIKIEIEPSA [r9_5_TrROS_Hall]”, the results for the “folding stability dG unfold” value in data set [1], in data set [2] and in data set [3] were 3.52 ± 0.37 kcal/mol, 2.73 ± 0.18 kcal/mol and 3.9 ± 0.2 kcal/mol, respectively.
As for “SKLKPGDIVKLENGEYYRIKKIEISYDKETKEFTIKAEIEPAPPVETETETKTNADGSTETVTKTKVELPSA [r9_914_TrROS_Hall]”, the “folding stability dG unfold” value was 1.95 ± 0.042 kcal/mol in data set [1], 0.701 ± 0.061 kcal/mol in data set [2] and 2.366 ± 0.021 kcal/mol in data set [3].
Take “SKMKIKIEVEKVEDGYLKITITAESKEEAEKAIKELAKKLFGIEEVKVEYDKETKKITVEIIIRPPGEKVSA [r9_1120_TrROS_Hall]”: the “folding stability dG unfold” value in data set [1] came out at 2.95 ± 0.35 kcal/mol; in data set [2], 2 ± 0.17 kcal/mol; in data set [3], 3.61 ± 0.18 kcal/mol.
Regarding “SKPMSPRDQLREIADDIAEKLNEKNGKPYKVRVEFEYPNMPFEIEIPPEAPIEDIMDHFPGWKIKVEIEPSA [r9_513_TrROS]”, the “folding stability dG unfold” value in data set [1] worked out at 0.0339 ± 0.52 kcal/mol; in data set [2] it was 0.00988 ± 0.15 kcal/mol; in data set [3], 0.0344 ± 0.32 kcal/mol.
As for “SKTIEIEIRVGGELYRIKIKVKRKGEPEEEIELTVPAGMSIEEIAARLKELYPDLKVEIVEIERLPPPEPSA [r9_364_TrROS_Hall]”, the “folding stability dG unfold” value was determined as 3.86 ± 0.082 kcal/mol in data set [1], 2.98 ± 0.072 kcal/mol in data set [2] and 4.17 ± 0.11 kcal/mol in data set [3].
Regarding “SKTIMIPANMPIDFIRKIARNAAKNGPPVKITIMIPDNPKIKEWLEEAGFPVEIERNKENNMQMITIEVPSA [r9_759_TrROS]”, the entries for the “folding stability dG unfold” value in data set [1], in data set [2] and in data set [3] were 1.91 ± 0.07 kcal/mol, 1.8 ± 0.029 kcal/mol and 1.95 ± 0.028 kcal/mol, respectively.
Turning to “SKTLTLEVEVPEGPVRIVVEASDGSRLEAEVPADEKVTFTIPIPPDIPEETKVTVRVYNPETGEVTELEASA [r9_275_TrMRF]”, the figures for the “folding stability dG unfold” value in data set [1], in data set [2] and in data set [3] were 0.789 ± 0.066 kcal/mol, 0.353 ± 0.063 kcal/mol and 1.11 ± 0.069 kcal/mol, respectively.
